Source: the DeepSol protein solubility set

Experiment: soluble on expression in E. coli; label from the status in PepcDB or PDB records

Sequence	soluble on expression in E. coli
MGSDKIHHHHHHMIFELPDTTTQQISKTLTRLRESGTQVTTGRVLTLIVVTDSESDVAAVTESTNEASREHPSRVIILVVGDKTAENKVDAEVRIGGDAGASEMIIMHLNGPVADKLQYVVTPLLLPDTPIVAWWPGESPKNPSQDPIGRIAQRRITDALYDRDDALEDRVENYHPGDTDMTWARLTQWRGLVASSLDHPPHSEITSVRLTGASGSTSVDLAAGWLARRLKVPVIREVTDAPTVPTDEFGTPLLAIQRLEIVRTTGSIIITIYDAHTLQVEMPESGNAPSLVAIGRRSESDCLSEELRHMDPDLGYQHALSGLSSVKLETV	not soluble
MGSDKIHHHHHHMIFKRKVYDKLIEWKTLAAGTSAVLLEGARRIGKSTIVEEFAKKEYDDYMILDFARENQDVKNNFVENMNDLDTFFRNLFLLKGKRLKGKNCVIIFDEVQLFPQARQAIKYLVADGRYEYIETGSLISIRKNVKDILIPSEEYRIKMYPMDFEEYLWAINDEVTIPTIRESFEKRKPLGDAIHRRIMKSFRTYMVVGGMPQAVDAYVSGKSYEQIDFVKRNILSLYEEDLAKYDTENREKASVIYRTIPEQLENKNSHFKLSMVDKNARYQNYMDAVSFISEAMIGNECINVTKPEVALELFADRSNFKLYMGDTGLLVTQIMKNRDSTDEDLYKALIIDNLGINQGMIVENIVAQMLRAAGHELYFHEYLYVPEGTTREKKYEIDFMIVKKKKICPIEVKSSNYMSHKSFDYLIQKYQLKCENRFIIYTKDLKYQDGIMYIPIYMTMLL	not soluble
MGSDKIHHHHHHMIGKFFASINLSDVAAMAGIPISFMTAYSISPEIEISFLEDIESGIMKVLKMYDVDFIGGDLKEGMDLILTGIAIGKQKKTLTRKRSDIGRKQMVAYTNKLGRAASGYIFYKSGYDSVEGINMMLGITPRLEEARIISEYGAKFMMDLSDGLYSSLNQMKADYGVGFKIVEDEVVYDDSARKAAEISGASVYDIACGYGGDYELLFTVPEENYRDFAQAMESNNIEVHFIGETWEGENIVFDGKTWTKMKDEGYEHFRPKPQLGEIR	not soluble
MGSDKIHHHHHHMIHITSLDDGLELFKALGSDIRIQILKILLENNQMSMNQIANELNISNGALTGHIKKLEECGLISASNDSSGHGNQKLCSLIQDRILVEIEKPIDLSNVYNTSIKVGQFSSHNICPTCGLATSSFVIGELDDVRYFDHPDHFNADIMWFTKGYVEYVIPNLIPRNQKITQLSLSAEISSEAPGIDNDWPSDISFYINDTLVGTWTSPGDYGDVRGMFTPEWWPQNWNQYGLLKLLVINHKGTFIDGLKISDITTSELKLDYTSTIRFRIAVEEDSAHVGGLTIFGKSFGNYDQDIVVSINYEPLDTEKNTK	not soluble
MGSDKIHHHHHHMIIHEITEECFKKYGKVIDSIDLTELVSTMQTVEIPADVVYEPSISALEKLKCATELQQKTYGELPIQIGWCIGNNHKLNAVEYHRCSEVNIAATDAILILGRQQDISVENTYDTSLMEAFRIPSGTAVELYATTLHYAPCNASAGGFLVAVVLPKGTNEALEHPHTGGEDALLAAKNKWLIGHPEGGLPDGSYIGLTGENLEIK	not soluble
MGSDKIHHHHHHMIIQRVVLNSRPGKNGNPVAENFRVEEFSLLDALNEGQVQVRTLYLSVDPYMRCKMNEDTGTDYLAPWQLAQVADGGGIGIVEESKHQKLAKGDFVTSFYWPWQTKAILDGNGLEKVDPQLVDGHLSYFLGAIGMPGLTSLIGVQEKGHISAGSNQTMVVSGAAGACGSLAGQIGHLLGCSRVVGICGTQEKCLFLTSELGFDAAVNYKTGNVAEQLREACPGGVDVYFDNVGGDISNTVISQMNENSHIILCGQISQYNKDVPYPPPLPPAVEAIRKERNITRERFTVLNYKDKFEPGILQLSQWFKEGKLKVKETVAKGLENMGVAFQSMMTGGNVGKQIVCISEDSSL	soluble
MGSDKIHHHHHHMIITVINGSPRKNGATSKVLTYLYKDIERLIPDVKINYFDLSEVNPSYCIGCLNCYKMGKCINQNDKVEYIHDIITKSDGVIFGSPTYGSSVTGLFKVFTDRAHMMLERLLYRKPCIAVTTYENARGSKAISFIKSMVLDSGGYVCGSLSIKTGFNQNPITEKVESKIQKVSKKFIYCIEEKKNPPVLSQIYNFIAINAVLKPMAFKDIEQYKGIIDRWEEQGII	not soluble
MGSDKIHHHHHHMIKIETVLDILKKDGLFREIIDQGHYHYNYSKVIFDSISYDSRKVTEDTLFFAKGAAFKKEYLLSAITQGLAWYVAEKDYEVGIPVIIVNDIKKAMSLIAMEFYGNPQEKLKLLAFTGTKGKTTAAYFAYNILSQGHRPAMLSTMNTTLDGETFFKSALTTPESIDLFDMMNQAVQNDRTHLIMEVSSQAYLVKRVYGLTFDVGVFLNISPDHIGPIEHPSFEDYFYHKRLLMEKSRAVIINSDMDHFSVLKEQVEDQDHDFYGSQFDNQIENSKAFSFSATGKLAGDYDIQLIGNFNQENAVAAGLACLRLGASLEDIKKGIAATRVPGRMEVLTQKNGAKVFIDYAHNGDSLKKLINVVETHQTGKIALVLGSTGNKGESRRKDFGLLLNQHPEIQVFLTADDPNYEDPMAIADEISSYINHPVEKIADRQEAIKAAMAITNHELDAVIIAGKGADCYQIIQGKKESYPGDTAVAENYL	not soluble
MGSDKIHHHHHHMIKLKTFGSFTVGNDISSVQEGAWRSEKLEKLFVYLAMNRNRGVCIEDISEAIWQVEEETDNPVGALKNLAYRLRKALRDASFDEECIVSVRGGLYKWNDDVEVTIDVEEFDRYINEAEMAFCRSKETAIESYEKAIALYHGDFLPLRTDTHWFMTLNAFYHSRYVNTVKALAKLYIDTGCYEKLEQLCIRAIVYERSDEQIYSYLIMARMRTKKVQMAFDTYETAKAIMDKDLGVRKTVMLNKVYEELLSVTKGVSSYNIDEVKEDINEESMEGVFMCGYPVFKEIYHLEVRKSARSTIPESLVLVTVVPMYSSQPDKNHSQMKDSMHTLERALRKCLRVGDVAAKYSDSQYIVLLSKCSCDTASDVMKRIIDRFNHTCDTHSNMTIHFDIEPVSCYSSFVSDK	not soluble
MGSDKIHHHHHHMIKRRYMRTRQLKPGMIIDQVIKDPTGRNLVVQGSAIDDYIISSLLKLGIMSVYIREGNADPDDPDAILSPKAAAMVKQLRTDDRSKVTLSDSVRQRVSTGVQYIFNNTNSEELTQATNQIADSLMEAINENDAIAVDISSLKTSDEYTFKHSVDVATISMILAKQMKLPDNEIHDIGVSGLLHDIGKTMIPNEILNKPGRLTDDEFNIMKKHSVYGYNMLKDRKDLNNSILMGVLQHHERIDGTGYPLGFDAPKICQFAKILSVADVYDALVTKRPYKDALSQRDAVEMLMSMTNQLDIGVMRAFMSSMILYPVDSIVQLSNGEKARVVKNSEYYILRPTVVGVDSGRVYNLGNDLKCASIIIL	not soluble
MGSDKIHHHHHHMILFEWGTYNALSTLKQAALLGTRITEIPPAVLSRRLPSGYYESYKKLGGEYFTSILAHGPYYSLSSEKGLKGHLSAIEKATLCGAEIYNYHLGKRVGDDLNYHLEVLKKFSEVNNEMIYSPEPATNIGEFGTLDELEELIKAAKEEDIKIIPSLQLENIFLNELGVYEKDDLDEAAEKADVDWWLKIFRRMDKISDYIMHFRFSQVIGLKYGKRFYKKRVPLGKGYPPVEPLTEALATYLVDNATRGGFKKVLFVYTGLPEVKYRDLIDLYAMIMKKSIDKLMSRESQVEYGDFYKVMSSEEEE	not soluble
MGSDKIHHHHHHMILSRGRNYVFIHIPKTGGTALALALESRAMAGDEMLGDTPKAVKRRRRLHGTETRGRLWKHSTLADIEGLASREELRQMFAFTLVRNPFDRVVSLYHWLKEQSFDHPMVPLAHSLPFTSFVTDPLVMRALKSQPALSYMMQSDGYEHCSLYIRLEYFAKDAAPLFDHLGFALELPRVNESRRDPDWRVYYDSQAVDAVRTCCQLEIERFEYSFNDYPLSL	not soluble
MGSDKIHHHHHHMINHHPNSDVLAQFVAGTLPASVSVLVASHVELCSECTRAVQALTEQAAIDAFGESSQEALRDASQPAGLADVSGLDDFDGLDDFDTSDQFGDSDEFADCINAITALERDDTQQLPQTVTEIAVGGERIPLPTALRSIPLKEWQGMGKLSRSRLALDDGDLRMSLLHIDKGGSVPCHTHKGFEITLLLQGSFTDEMGEYRKGDFIWLDGQHTHQPVTEKGCVCLTVSSDAIRFTQGVSQLLNPIGRFIY	not soluble
MGSDKIHHHHHHMINKHVISEKIKKAIVEANIKINPEVEEIIERYEGPFSDIIKENYRVSKEEKLPLCQDTGIVEFFVFIGHEVKLEEPIEETLNRAVGEVYSEYPFRYSVVSDPLFERINTGTNTPAIVHIFQVKGKSLEIRFLVKGGGSENLTVLRMMTPTSDVEKVKEFVIEHIKEHGAKACPPLHVGIGIGGTADKALLLSKLALTKSFKERNKDPKYAGLEKELEKELNFLGIGFQGLGKGITVYSVHIEHFPTHIATLPVAVSVDCYLCRRGKVTFED	not soluble
MGSDKIHHHHHHMINLSKKLIRQVAQANAKFGLIKDGDRVLLGLSGGKDSLALAHLLNRMQAHAPFKFELEAVTLSYGMGEDYSHLHAHCEEHGIKHSVLDSNIYEVSGDTIRENSSFCSYFSRMRRGALYTYALEKGFNKLAIAHHLDDAAESFFMNFIHNGALRTLAPIYQSKRGITVIRPLIFVRERQLRDNATQNELSVIGNEFCPGMKLSEKNVKFPHAREEAKQLLANLEKDHPKLFTSLKTAFANLHTESFWLQKA	not soluble
MGSDKIHHHHHHMINQVYQLVSPRQFEATFKTIDLHNHNSKVIVRPLYLSICAADLRYYCGNRDSKILSKKLPMSLIHESVGEIVYDSEHRLKNGTKVVMIPNTPSKSHNIIAENYLTSSHFKSSGYDGFMQDYIVMKPDRVVTLPQEIDLSVASYTELVTVSVHAIDRFQSKAIPQFESLGIWGDGNLGYITAVLLKKLYPTTKIIVFGKTLYKLSRFSFVDEIIQIDNIPQHIKIDHAFECVGGKGSQQAIEQIINIINPEGSIALLGVSELPIQVNTRMVLEKGLTIIGSSRSGLKDFEKTIELYRKYPEVLNQLALLKGKEFEINTIEDLITAFEYDISNAWGKTVLKWNI	not soluble
MGSDKIHHHHHHMIPIKVSMRNLSSLTIAGGSTISSIDIPLNPLGVPPSTIKGTMRTAVHNLLPNGYTSCGEVEPESIREAHKNGVCDVCKLFGYPDSLTGCFTIDVSKTDYRTSYITRVSIDDKTQRAKEGSLFTQQIILPNSDISFTVYYNCNDERLFKLLLYSILDLRYWRLGRNTMIDVKVNNVEEICKSVKCDEEINGILNQLSRYLWEAENK	not soluble
MGSDKIHHHHHHMIQNTFNIAGGVARNPLVRLAAPITATISAGEHIAIVGPNGGGKSLFVDTLIGKYPLREGTLQYDFSPAATQTVYDNVKYIAFRDTYGAADANYYYQQRWNAHDQDEAPDVREMLGEIKDEQLKQELFELFRIEPMLDKKIILLSSGELRKFQLVKTLLTAPRVLIMDNPFIGLDAPTRELLFSLLDRLTKMSSVQIILVLSMLDDIPSFITHVIPVDKMTVYPKMEREAYLEAFRSRDAAVSFDELQQRIVNLPYDGNNYDSDEVVKLNKVSIRYDDRTILKDLDWTVRRGEKWALSGENGAGKSTLLSLVCADNPQSYACDISLFGRKRGTGESIWEIKKHIGYVSPEMHRAYLKNLPAIEIVASGLHDSIGLYKRPQPEQMAICEWWMDIFGIAELKDNPFLQLSSGEQRLALLARAFVKDPELLILDEPLHGLDTYNRRRVKKIIEAFCHRKDKTMIMVTHYESELPGTITDRIFLKRNR	not soluble
